Source: patent US20190185562A1 (Regeneron, published 2019)

B1: MAb16637 (antibody, V domains shown)
VH: QVQLVQSGAEVKKPGASVKVSCKASGYTFTSLGISWVRQAPGQGLEWMGWISAYSGNRDYAQKFQGRVTMTTDTSTSTAYMELRSLRSDDTAVYYCARSLRFDYWGQGTLVTVSS
VL: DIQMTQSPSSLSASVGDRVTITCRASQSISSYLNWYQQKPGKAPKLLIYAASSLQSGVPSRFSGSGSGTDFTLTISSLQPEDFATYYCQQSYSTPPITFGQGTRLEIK
notes: Variable domains only
B2: MAb16618 (antibody, V domains shown)
VH: QVQLQESGPGLVKPSETLSLTCTVSGGSISNYYWTWIRQPPGKGLEWIGHISNSGTTNYNPSLKSRVTISVDTSKNQFSLKLTSVTAADTAVYYCARLPLGIAAVDTDYYYYFGMDVWGQGTTVTVSS
VL: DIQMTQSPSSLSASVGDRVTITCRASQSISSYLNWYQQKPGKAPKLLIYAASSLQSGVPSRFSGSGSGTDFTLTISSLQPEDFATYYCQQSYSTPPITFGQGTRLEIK
notes: Variable domains only
B3: MAb16623 (antibody, V domains shown)
VH: EVQLVESGGGLVQPGGSLRLSCAASGLTFSSYEMNWVRQAPGKGLEWVSHISSAGSTKYYADSVKGRFTISRDNAKNSLFLQMNSLRAEDTAIYYCAGYNYAYYYFGVDVWGQGTTVTVSS
VL: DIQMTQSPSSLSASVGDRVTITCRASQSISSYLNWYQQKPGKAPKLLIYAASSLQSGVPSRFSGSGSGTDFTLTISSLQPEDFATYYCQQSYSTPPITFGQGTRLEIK
notes: Variable domains only
B4: MAb16614 (antibody, V domains shown)
VH: QVQLVESGGGVVQPGGSLRLSCAASGFTFSTYDIHWVRQAPGKGLEWVAVISFDGSNRNYGDSVKGRFTISRDNSDNTLFLEMNNLRFEDTAVYYCAKEGYGVDFQHWGQGTLVTVSS
VL: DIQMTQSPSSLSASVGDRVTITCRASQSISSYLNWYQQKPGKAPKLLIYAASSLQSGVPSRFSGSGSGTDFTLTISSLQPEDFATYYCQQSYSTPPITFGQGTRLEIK
notes: Variable domains only
B5: MAb16683 (antibody, V domains shown)
VH: QVQLVESGGGLVKPGGSLRLSCAASGFTFSDYYMTWIRQTPGKGLDWVSYISSSGTNKYNADSVKGRFTISRDNAKNSLYLQMNSLRAEDTAVYYCVRDPPWGMDVWGQGTTVTVSS
VL: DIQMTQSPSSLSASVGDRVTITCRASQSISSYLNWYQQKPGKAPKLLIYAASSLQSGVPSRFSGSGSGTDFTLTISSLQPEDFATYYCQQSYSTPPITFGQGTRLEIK
notes: Variable domains only
B6: MAb16662 (antibody, V domains shown)
VH: EVQLVESGGGLVQPGGSLRLSCTASGFTFSNYAIFWVRQAPGKGLEYVSGISNNGVTKYYADSVRDRFTISRDNSRNTVSIQMDSLRTEDMAVYYCARENWGSDDGFDIWGQGTMVTVSS
VL: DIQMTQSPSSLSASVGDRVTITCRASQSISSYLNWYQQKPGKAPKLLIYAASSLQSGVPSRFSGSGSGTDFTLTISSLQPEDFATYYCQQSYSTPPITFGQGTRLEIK
notes: Variable domains only
B7: MAb16659 (antibody, V domains shown)
VH: QVQLVQSGPEVKKPGSSVKVSCKASGGTIDRNEITWVRQAPGQGLEWMGVIIPILGEAHYERKFQGRLTITMDESTSTAYMELSNLRSEDTAVYYCARERAARGYLDYWGQGTLVTVSS
VL: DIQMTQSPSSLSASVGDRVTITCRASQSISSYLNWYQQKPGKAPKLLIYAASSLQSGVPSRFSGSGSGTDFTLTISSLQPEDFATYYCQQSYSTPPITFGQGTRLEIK
notes: Variable domains only
B8: MAb16682 (antibody, V domains shown)
VH: EVQLVESGGGLVQPGGSLRLSCAASGFTFSTYWMNWVRQAPGKGLEWVANIKEDGSEKYYVDSVKGRFTISRDNAKNSLYLQMNSLRAEDTAVYYCAREGFGVVTYIWGQGTMVTVSS
VL: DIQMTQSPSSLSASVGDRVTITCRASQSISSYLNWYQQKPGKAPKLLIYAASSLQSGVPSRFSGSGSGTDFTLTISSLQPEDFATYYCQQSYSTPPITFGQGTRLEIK
notes: Variable domains only
B9: MAb16676 (antibody, V domains shown)
VH: QVQLVQSGAEVMKPGASVKVSCRASGYTFSSYDINWVRQAPGQGLEWMGWISTATGNTNYPQKVQGRVTMTTDTSTNTAYMELRSLRSDDTAVYYCTREGNSKGWLDPWGQGTLVTVSS
VL: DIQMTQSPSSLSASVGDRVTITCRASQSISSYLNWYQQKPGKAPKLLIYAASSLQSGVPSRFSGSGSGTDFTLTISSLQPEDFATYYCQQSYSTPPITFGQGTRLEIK
notes: Variable domains only
B10: MAb16622 (antibody, V domains shown)
VH: EVQLVESGGGVVRPGGSLRLSCTASGFTFDDYGMSWVRQAPGKGLEWVSGINWNGGRTEYADAVKGRFIISRDNAKNSLYLQMNSLRAEDTALYFCARTELRWDYWGQGTLVTVSS
VL: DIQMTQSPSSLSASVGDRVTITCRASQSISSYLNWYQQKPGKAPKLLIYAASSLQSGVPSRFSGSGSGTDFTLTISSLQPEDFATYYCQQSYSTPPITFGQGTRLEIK
notes: Variable domains only
B11: MAb16656 (antibody, V domains shown)
VH: EVQLVESGGGLVQPGRSLRLSCAASGFTLDDFAMHWVRQAPGKGLEWVSGISWNSGNIGYADSVKGRFTISRDNARNSLYLQMNSLRAEDTALYYCTSGYYLYYAMDVWGQGTTVTVSS
VL: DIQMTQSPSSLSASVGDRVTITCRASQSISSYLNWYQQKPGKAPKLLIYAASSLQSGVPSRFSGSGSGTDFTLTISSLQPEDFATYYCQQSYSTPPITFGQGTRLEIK
notes: Variable domains only
B12: MAb16673 (antibody, V domains shown)
VH: EVQLVQSGAEVKKPGESLKISCKGSGYSFTSYWIDWVRQMPGKGLEWMGIIYPDDSDTRYSPSFQGQVTMSVDKSISTAYLQWSSLKASDTAIYYCARHERGIVEAGTDYYYYYGMDVWGQGTTVTVSS
VL: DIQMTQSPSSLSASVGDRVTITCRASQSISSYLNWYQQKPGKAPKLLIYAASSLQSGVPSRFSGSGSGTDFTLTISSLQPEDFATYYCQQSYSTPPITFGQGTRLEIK
notes: Variable domains only
B13: MAb16636 (antibody, V domains shown)
VH: QLQLQESGPGLVKPSETLSLICTVSGGSISSNNYYWGWIRQPPGKGLEWIGNLYGSGSTYYNPSLKSRVTISVDTSKNQFSLKLSFVTAADTAVYHCARWDTNGGAFDIWGQGTMVTVSS
VL: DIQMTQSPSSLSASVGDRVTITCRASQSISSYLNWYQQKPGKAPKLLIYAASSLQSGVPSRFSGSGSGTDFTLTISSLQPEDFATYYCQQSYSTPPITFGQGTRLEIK
notes: Variable domains only
B14: MAb16664 (antibody, V domains shown)
VH: QVQLVQSGTEVKKPGSSVKVSCKASGGTFSTYPINWVRQAPGQGLEWMGGIIPIFGTASYAQKFQGRVAITTDESTSTAYMELNSLRSEDTAVYYCARERPNWGSNDYWGQGTLVTVSS
VL: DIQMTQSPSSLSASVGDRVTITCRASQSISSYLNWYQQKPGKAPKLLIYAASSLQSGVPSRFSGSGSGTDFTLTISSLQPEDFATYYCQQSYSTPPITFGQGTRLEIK
notes: Variable domains only
B15: MAb16669 (antibody, V domains shown)
VH: EVQLVESGGGLVQPGGSLRLSCAASGFTFSSYAMNWVRQAPGKGLEWVSAISGSGDSTYYTDSVKGRFTISRDNSKNTLYLQMNTLRAEDTAVYYCAKEEIVMLVGATPGWFDPWGQGTLVTVSS
VL: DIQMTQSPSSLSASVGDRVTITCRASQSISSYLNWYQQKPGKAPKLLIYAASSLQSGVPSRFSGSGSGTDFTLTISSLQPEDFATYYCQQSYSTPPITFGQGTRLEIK
notes: Variable domains only
B16: MAb16665 (antibody, V domains shown)
VH: QVQLVESGGGVVQPGRSLRLACAASGFTFRSYGMHWVRQAPGKGLEWVAVIWYDGSNKYYTDSVKGRFTISRDNSKNTLYLQMNSLRAEDTAMYYCAIDKWATVTTYLFDYWGQGTLVTVSS
VL: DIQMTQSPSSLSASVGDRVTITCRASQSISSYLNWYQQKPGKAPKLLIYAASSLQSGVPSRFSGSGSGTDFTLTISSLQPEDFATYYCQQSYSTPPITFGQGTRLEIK
notes: Variable domains only

Columns and labels:
[1] = molecular target: T1, full length (FL) human gp130 over-expressed on HEK293/Stat3-luc/gp130-2X Sort cells (human, UniProt P40189 23-918); assay: FACS, 10 nM mAb, 293/Stat3-luc/GP130 2X sort cells
T1 construct: whole, on cells
T1 sequence (looked up): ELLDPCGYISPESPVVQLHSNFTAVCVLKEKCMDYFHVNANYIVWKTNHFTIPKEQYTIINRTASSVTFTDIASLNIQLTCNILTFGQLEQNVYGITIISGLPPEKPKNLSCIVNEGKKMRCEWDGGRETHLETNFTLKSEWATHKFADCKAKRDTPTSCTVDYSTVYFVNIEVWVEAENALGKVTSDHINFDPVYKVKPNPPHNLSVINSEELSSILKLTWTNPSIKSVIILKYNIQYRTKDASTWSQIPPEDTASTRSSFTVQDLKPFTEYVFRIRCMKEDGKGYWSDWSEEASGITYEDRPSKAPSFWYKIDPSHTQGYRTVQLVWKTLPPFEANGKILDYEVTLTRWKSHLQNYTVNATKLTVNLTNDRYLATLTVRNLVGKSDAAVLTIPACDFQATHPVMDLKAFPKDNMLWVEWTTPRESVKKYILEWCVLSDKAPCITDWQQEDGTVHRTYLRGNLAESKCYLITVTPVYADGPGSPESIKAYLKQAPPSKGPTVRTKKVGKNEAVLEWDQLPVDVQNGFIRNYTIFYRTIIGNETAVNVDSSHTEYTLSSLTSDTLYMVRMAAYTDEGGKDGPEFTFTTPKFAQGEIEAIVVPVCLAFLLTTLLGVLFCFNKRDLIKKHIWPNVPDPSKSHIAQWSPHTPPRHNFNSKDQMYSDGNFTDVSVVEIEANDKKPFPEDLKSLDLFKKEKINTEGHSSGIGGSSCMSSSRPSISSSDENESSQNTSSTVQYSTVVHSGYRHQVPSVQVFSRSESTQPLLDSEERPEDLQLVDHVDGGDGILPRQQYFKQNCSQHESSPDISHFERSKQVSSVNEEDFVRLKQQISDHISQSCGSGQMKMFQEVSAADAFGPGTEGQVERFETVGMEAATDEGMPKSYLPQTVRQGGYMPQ
Excerpt: (§1) In order to assess cell binding by anti-GP130 antibodies of the invention two cell lines were generated. One cell line generated was HEK293 cells stably over-expressing full length (FL) human gp130 (amino acids 1-918 of accession # P40189 with leucine at position 2 changed to valine, a natural variant) along with a luciferase reporter (Stat3-luciferase, Stat3-luc, SA Bioscience, #CLS-6028L). The cells were sorted twice using flow cytometry for high expression of gp130. It is known hereafter as HEK293/Stat3-luc/gp130-2X Sort. IMR-32 cells (human Neuroblastoma, ATCC), were also evaluated for cell binding as these cells express gp130 endogenously and were used for bioassays. The cells used for binding were generated to stably express a luciferase reporter (Stat3-luciferase, Stat3-luc, SA Bioscience, #CLS-6028L), and are referred to hereafter as IMR-32/STAT3-Luc cells.
(§2) For the FACS analysis, 10 nM of the antibodies were used to stain 0.5×10^6 cells/well of each cell type at 4° C. in PBS (without calcium and magnesium) containing 2% FBS for 30 minutes. IMR-32/STAT3-luc cells were incubated with 1 mg/mL mouse IgG for 30 minutes at 4° C. to block Fc receptors prior to adding the antibodies. To test whether the anti-gp130 antibody binding is specific for gp130 on the IMR-32 cells, antibodies were added to IMR-32/Stat3-luc cells with or without being pre-bound to 1000 nM of recombinant protein of the ecto-domain of human gp130 fused to myc-myc-his tag (hgp130.mmh) for 30 minutes at 25° C. […] Cells were fixed using BD CytoFix™ (Becton Dickinson, #554655) and analyzed on an IQue® (Intellicyt®) Flow Cytometer. Unstained and secondary antibody alone controls were also tested for all cell lines. The results were analyzed using ForeCyt® (IntelliCyt®) software to determine the geometric means of fluorescence for viable cells.

[2] = molecular target: T2, human gp130 expressed endogenously on IMR-32/Stat3-luc cells (human, UniProt P40189 23-918); assay: FACS, 10 nM mAb, IMR-32/Stat3-luc cells, no hGP130.mmh
T2 construct: whole, on cells
T2 sequence (looked up): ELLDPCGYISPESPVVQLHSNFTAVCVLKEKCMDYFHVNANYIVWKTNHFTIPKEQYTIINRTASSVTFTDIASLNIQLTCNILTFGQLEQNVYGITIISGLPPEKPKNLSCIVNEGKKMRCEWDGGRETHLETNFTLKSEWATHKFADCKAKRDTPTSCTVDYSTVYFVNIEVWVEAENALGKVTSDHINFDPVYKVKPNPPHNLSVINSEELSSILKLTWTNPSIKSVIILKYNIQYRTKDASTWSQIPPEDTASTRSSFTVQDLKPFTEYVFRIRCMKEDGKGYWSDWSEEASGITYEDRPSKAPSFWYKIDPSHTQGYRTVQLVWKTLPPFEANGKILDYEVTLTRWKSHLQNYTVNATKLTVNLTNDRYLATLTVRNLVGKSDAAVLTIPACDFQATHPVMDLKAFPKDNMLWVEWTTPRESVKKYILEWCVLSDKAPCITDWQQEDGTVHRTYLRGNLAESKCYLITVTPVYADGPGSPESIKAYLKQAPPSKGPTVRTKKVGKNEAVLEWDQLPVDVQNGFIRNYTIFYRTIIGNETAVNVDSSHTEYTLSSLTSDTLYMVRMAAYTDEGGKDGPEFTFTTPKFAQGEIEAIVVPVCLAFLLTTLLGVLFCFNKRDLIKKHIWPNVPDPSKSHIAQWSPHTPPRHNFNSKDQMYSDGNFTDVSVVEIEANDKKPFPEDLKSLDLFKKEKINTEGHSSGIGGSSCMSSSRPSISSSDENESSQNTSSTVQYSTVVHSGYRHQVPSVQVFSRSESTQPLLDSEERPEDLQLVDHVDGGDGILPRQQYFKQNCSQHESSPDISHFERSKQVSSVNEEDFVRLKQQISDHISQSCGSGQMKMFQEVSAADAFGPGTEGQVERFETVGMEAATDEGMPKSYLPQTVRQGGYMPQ
Excerpt: as §1, §2

[3] = molecular target: T2, human gp130 expressed endogenously on …; assay: FACS, 10 nM mAb, IMR-32/Stat3-luc cells, competitor 1 uM hGP130.mmh
Excerpt: as §1, §2

Binder | MFI - Normalized to Unstained Control [1] | MFI - Normalized to Unstained Control [2] | MFI - Normalized to Unstained Control [3]
B1 | 121 | 9 | 7
B2 | 105 | 7 | 8
B3 | 96 | 8 | 7
B4 | 94 | 7 | 6
B5 | 75 | 9 | 7
B6 | 49 | 5 | 6
B7 | 81 | 8 | 8
B8 | 80 | 6 | 8
B9 | 74 | 9 | 8
B10 | 91 | 5 | 7
B11 | 132 | 12 | 7
B12 | 107 | 10 | 7
B13 | 92 | 8 | 7
B14 | 45 | 7 | 8
B15 | 53 | 6 | 5
B16 | 55 | 5 | 6
